The source of these data is US7888090B2, “Mutants of O6-alkylguanine-DNA alkyltransferase” (Ecole Polytechnique Federale de Lausanne, priority 2004, dated 2011).

The nature of data set [1]: Reactivity towards N^9-modified O^6-benzylguanine derivatives (preblocking, BG-Cy3 assay). In kind it is biochemical. The following applies: 100 µM N^9-isobutyl-, N^9-propyl-, N^9-cyanomethyl-O^6-benzylguanine, 15 min. On the procedure: FIG. 3: Reactivity of AGT mutants with N^9-modified BG derivatives. 10 µM AGTM (grey bars) or PGEG-hAGT (black bars) were preblocked with 100 µM N^9-modified BG derivatives (see list below), and subsequently labeled with 20 µM BG-Cy3. After 1 h reaction time, fluorescence intensity (FI) indicated in arbitrary units [a.u.] at 595 nm is measured. The black bold line is set at the reading for condition 1 corresponding to background fluorescence of the fluorophore not attached to protein. Values above this line indicate slow or incomplete reaction with N^9-modified BG-derivative. • 1 Fluorescence of BG-Cy3 without protein; background fluorescence. • 2 Reaction with BG-Cy3; no preblocking, positive control. • 3 Reaction with BG-Cy3, preblocked with 100 µM BG. • 4 Reaction with BG-Cy3, preblocked with 100 µM N^9-isobutyl-O^6-benzylguanine. • 5 Reaction with BG-Cy3, preblocked with 100 µM N^9-propyl-O^6-benzylguanine. • 6 Reaction with BG-Cy3, preblocked with 100 µM N^9-cyanomethyl-O^6-benzylguanine.
Reactivity of AGT towards N^9-modified O^6-benzylguanine derivatives: The experiment is based on the BG-Cy3 assay. Upon reaction of AGT with BG-Cy3, an increase of fluorescence emission intensity of Cy3 by a factor 2-3 can be observed. […]

Data set [2] concerns oligonucleotide SEQ ID NO:2 (modified in position 14). The data set is described as follows: Reactivity against DNA-based substrates (BG-Cy3 assay with BG-modified oligonucleotide). In kind it is biochemical. The following applies: 0.5 µM (or more) BG-modified oligonucleotide. As for the experimental part: The ability of wild type AGT or mutant AGT to react with alkylated DNA substrates is measured as the reaction of its inactivation by a synthetic oligonucleotide containing O^6-benzylguanine (SEQ ID NO:2, modified in position 14). Subsequently, the reactions are quenched by incubation with biotinylated O^6-alkylguanine. Samples are subjected to Western blotting and detection with streptavidin derivates to obtain kinetic constants for these substrates. Alternatively, the ability of wild type or mutant AGT to react with alkylated DNA substrates is measured via its labeling efficiency in competition with a fluorescent substrate of AGT. The reaction kinetics of AGT with BG-Cy3 (O^6-benzylguanine coupled to Cy3) is followed by fluorescence intensity measurements at various concentrations of a competing synthetic oligonucleotide containing O^6-benzylguanine (SEQ ID NO:2, modified in position 14).
Reactivity against DNA-based substrates measured with a BG-Cy3 assay: BG-Cy3 is prepared by reacting the previously described O^6-(4-aminomethyl-benzyl)guanine (Keppler et al., NatureBiotechnol. 21:86-89, 2003) with the commercially available N-hydroxysuccinimide ester of Cy3, (Cy3-NHS, Amersham). The coupling reaction is performed at ambient temperature in N,N-dimethylformamide in the presence of 1 eq. of triethylamine. The BG-Cy3 conjugate is purified by reversed-phase HPLC on a C18-column by using linear gradients from 0.1% trifluoroacetic acid to acetonitrile. After solvent evaporation BG-Cy3 is dissolved in dimethyl sulfoxide and stored at −20° C. For measuring the reactivity with DNA-based substrates, a reaction mixture containing different concentrations (0 to 5 µM) of oligonucleotide SEQ ID NO:2 (modified in position 14), GST-AGT fusion protein at 0.2 µM and BG-Cy3 at […] in reaction buffer (50 mM HEPES, pH 7.2, 1 mM DTT, 200 mg/ml BSA) is incubated in microtiterplates. Fluorescence of the Cy3 derivative (excitation 519 nm, emission at 572 nm) is measured on a Spectramax Gemini plate reader (Molecular Devices).

The next data set relates to salmon sperm DNA. The data set can be described thus: DNA binding as inhibition by DNA of the reaction with BG-Cy3. To be noted: salmon sperm DNA 25 µg/ml. On the procedure:
(§1) The interaction with DNA is e.g. quantified by assessing the amount of copurified DNA from E. coli extracts under conditions of low salt and absence of DNase. This is compared between parallel purifications of fusion proteins (e.g. fusions to GST) of wild type (human) and mutant AGT by spectroscopic methods (ratio of absorbance at 260 and 280 nm). Alternatively the interaction of AGT with DNA is measured as the inhibition of AGT reactivity with BG-Cy3 (O^6-(4-aminomethyl-benzyl)-guanine coupled to Cy3) as substrate in the presence of DNA. This approach takes advantage of a marked increase of fluorescence of the Cy3 fluorophore upon reaction of BG-Cy3 with AGT. The reaction kinetics of AGT with a Cy3-labeled benzylguanine derivative is followed by fluorescence intensity measurements over several hours at various concentrations of salmon sperm DNA.
DNA binding: DNA binding is measured as inhibition by DNA of the reaction of AGT mutants with BG derivatives. The reaction rate of AGT mutants in a reaction mixture containing salmon sperm DNA (25 µg/ml) instead of oligonucleotide is measured with the BG-Cy3 assay. The reaction rate is determined by fitting the obtained data to a monoexponential increase to maximum.

For data set [3] the following is noted: compared to wild type hAGT; literature; cited from earlier work.
The subject of a further data set is DNA. The data set is described as follows: DNA binding in vitro (co-purified DNA, UV spectroscopy). More on the design: species or system E. coli. To be noted: co-purified DNA; compared to wild type hAGT or PGEG-hAGT. On the procedure:
as §1
For comparing the DNA binding properties of the protein in vitro, the harvested cells are resuspended, and the GST fusion protein is purified following the same method but in a buffer containing 50 mM phosphate, 0.1 M NaCl, 1 mM DTT. In the dialysed samples, the amount of subsequently co-purified DNA is estimated by UV spectroscopy. Spectra are recorded using a Perkin Elmer Lambda 10. The content of DNA corresponds to the ratio of the extinctions at 280 and 260 nm. […]

Data set [4] in a line: Stability after reaction with BG-FL. In kind it is physicochemical. The following applies: over 7 days. On the procedure:
Stability before reaction is determined for the mutant AGT or for a mutant AGT fusion protein by incubating purified samples in buffered aqueous solution for up to two weeks at 4° C. and up to six months at −20° C. At several time points, aliquots are taken and concentration of reactive AGT is estimated as described by Juillerat et al., Chem Biol 10:313-317, 2003. Stability for wild type AGT and the AGT mutant after reaction with a labelled substrate and after subsequent separation from unreacted substrate is determined by quantifying the concentration of the label in the soluble fraction over up to two weeks at 4° C. and up to three months at −20° C.
Stability after reaction: The vector pBAD/H is A (Invitrogen) is modified by cloning synthetic oligonucleotides (SEQ ID NO:29 and SEQ ID NO:30) between the NcoI and HindIII sites to include a 12×His-tag and SbfI and AscI cloning sites. The gene of AGTM is amplified with primers SEQ ID NO:31 and SEQ ID NO:32 and cloned between the SbfI/AscI sites into this vector. Wild type AGT and mutant AGT (Lys125Ala, Ala127Thr, Arg128Ala, Asn157Gly, Ser159Glu) are amplified with primers SEQ ID NO:31 and SEQ ID NO:33 and cloned into this vector. Protein expression is carried out in E. coli strain Top 10. An exponentially growing culture is induced with 0.2% arabinose, and the expression is carried out for 16 hours at 28° C. The cells are lysed by adding buffer to 10 ml/g containing 0.5 M NaCl, 80 mM imidazole, 1% Triton, 250 µM PMSF, 1 mM […]-mercaptoethanol, 5 mg/ml lysozyme, 20 µg/ml DNase and stirring for 45 min. […]
The AGT proteins at 10 µM) are quantitatively reacted with fluorescein-modified O^6-benzyl-guanine (substance 5 of Juillerat et al, Chem Biol 10:313-317, 2003, BG-FL, 20 µM) and purified over a size exclusion column (Econopac 10 DG, Bio-Rad) and incubated for 7 days. […] The fluorescence of the supernatant is measured with a Victor2 fluorescence plate reader (Perkin Elmer, excitation/emission at 485/535 nm).

The nature of data set [5]: Activity assay with biotinylated O^6-benzylguanine (BG-Bt), Western blotting. Type of data set: biochemical. The following applies: statement in words. In a few lines: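 Purified mutant GST-AGT (0.2 μM) reacted with 1 μM biotinylated O^6-benzylguanine in 50 mM HEPES pH 7.2, 1 mM DTT at room temperature. Time-point aliquots quenched with O^6-benzylguanine in SDS buffer. Biotinylated protein detected by Western blot with neutravidin-peroxidase, band intensity quantified.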

A further data set relates to CHO cells. The data set can be described thus: Selective labelling in cells after CPTG pre-incubation. To be noted: 5 µM CPTG 10 min, then 5 µM fluorescent substance 4 20 min. Type of data set: cell-based. The source says: In a further experiment, the mutant AGTM as described in Example 6 is amplified with the primers SEQ ID NO:34 and SEQ ID NO:36 and cloned between the NheI and BgIII sites of the vector pEGFP-Nuc. The […]-galactosidase gene is amplified with the primers SEQ ID NO:37 and SEQ ID NO:38 and subcloned into this vector via BgIII/BamHI to result in a vector with an AGTM-[…]-Gal fusion gene. The hAGT gene is amplified by the principle described under Example 1 with the primers SEQ ID NO:39, SEQ ID NO:40, SEQ ID NO:34, and SEQ ID NO:35 and cloned via NheI/BgIII into pEGFP-Nuc to result in an AGT-NLS3 fusion gene coding for the mutation Gly160Trp. After transient expression of both AGT mutants in parallel, the cells are incubated with 5 µM CPTG for 10 min and subsequently with 5 µM of substance 4 of Juillerat et al., Chem Biol 10:313-317, 2003, for 20 min. The cells are washed and imaged as described under Example 1.

B1: PGEG-hAGT: an AGT containing the mutations Asn157Gly, Ser159Glu (Juillerat et al., Chem Biol 10:313-317, 2003) (protein, UniProt P16455 1-207, looked up, variant N157G S159E)
Methylated-DNA--protein-cystei …: MDKDCEMKRTTLDSPLGKLELSGCEQGLHEIKLLGKGTSAADAVEVPAPAAVLGGPEPLMQCTAWLNAYFHQPEAIEEFPVPALHHPVFQQESFTRQVLWKLLKVVKFGEVISYQQLAALAGNPKAARAVGGAMRGNPVPILIPCHRVVCSSGAVGGYEGGLAVKEWLLAHEGHRLGKPGLGGSSGLAGAWLKGAGATSGSPPAGRN
Regarding B1, in data set [1], the “extent of reaction with N^9-modified BG derivatives” value is on record as “reacts efficiently”. In addition, in data set [2], the “activity in presence of BG-modified oligonucleotide” value is listed as “less than 3%”. Also, the “reduction of reaction rate to BG-Cy3 in presence of DNA” value in the data set on salmon sperm DNA was 5 fold. Besides, the “activity against benzylguanine derivatives (factor)” value in data set [3] is “approximately 20”.

B2: Lys125Ala, Ala127Thr, Arg128Ala, Asn157Gly, Ser159Glu: hAGT mutant with the listed mutations, expressed as GST fusion (protein, UniProt P16455 1-207, looked up, variant K125A A127T R128A N157G S159E)
Methylated-DNA--protein-cystei …: MDKDCEMKRTTLDSPLGKLELSGCEQGLHEIKLLGKGTSAADAVEVPAPAAVLGGPEPLMQCTAWLNAYFHQPEAIEEFPVPALHHPVFQQESFTRQVLWKLLKVVKFGEVISYQQLAALAGNPAATAAVGGAMRGNPVPILIPCHRVVCSSGAVGGYEGGLAVKEWLLAHEGHRLGKPGLGGSSGLAGAWLKGAGATSGSPPAGRN
modifications: GST fusion
Regarding B2, the DNA binding entry in the data set on DNA was “at least ten times reduced DNA binding”. Moreover, in data set [4], the “loss of soluble fluorescent protein” value is listed as “about 60%”. In data set [5], the “activity towards O^6-benzylguanine substrates” value is reported as “retains activity”.

B3: AGT (Gly160Trp): Human AGT mutant Gly160Trp (Xu-Welliver et al.); expressed as AGT-NLS3 fusion (protein, UniProt P16455 1-207, looked up, variant G160W)
Methylated-DNA--protein-cystei …: MDKDCEMKRTTLDSPLGKLELSGCEQGLHEIKLLGKGTSAADAVEVPAPAAVLGGPEPLMQCTAWLNAYFHQPEAIEEFPVPALHHPVFQQESFTRQVLWKLLKVVKFGEVISYQQLAALAGNPKAARAVGGAMRGNPVPILIPCHRVVCSSGAVGNYSWGLAVKEWLLAHEGHRLGKPGLGGSSGLAGAWLKGAGATSGSPPAGRN
modifications: NLS3 fusion
Turning to B3, the “reaction with CPTG inside cells” value in the data set with CHO cells is “efficiently reacts with CPTG inside cells”. In addition, the “activity against benzylguanine derivatives (factor)” value in data set [3] is reported as “somewhat more reactive”.
